Changes are numbered by the printed parent chain. Numbers in names are those of the source. Where only a bound is given, the exact number is not on record here.

Assay in all cases: cell-based or functional assay
The target in assay [1] is T1, thermostable variant of Streptomyces mobaraensis transglutaminase (Streptomyces mobaraensis, UniProt P81453 79-407).
T1 sequence: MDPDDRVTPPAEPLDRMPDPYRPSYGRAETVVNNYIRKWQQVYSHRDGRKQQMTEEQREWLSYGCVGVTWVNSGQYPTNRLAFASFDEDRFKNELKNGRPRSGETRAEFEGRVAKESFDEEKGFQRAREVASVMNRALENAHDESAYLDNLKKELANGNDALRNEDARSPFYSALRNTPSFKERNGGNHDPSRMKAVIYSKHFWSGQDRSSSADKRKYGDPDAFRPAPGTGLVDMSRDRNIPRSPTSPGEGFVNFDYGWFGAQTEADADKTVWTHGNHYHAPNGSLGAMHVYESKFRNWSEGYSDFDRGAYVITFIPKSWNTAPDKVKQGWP

The target of assay [2] is T1, thermostable variant of Streptomyces …. This is another data set of the same source.
Assay [3] has the same target. The source holds these as a separate data set.

B1: pro-peptide variant A24V (peptide)
peptide: MDNGAGEETKSYAETYRLTADDVVNINALNESAPAASSAGPSFRAP
In the case of B1, in assay [1], the “Improvement in binding affinity of inhibitory peptide relative to WT” value was more than 1.2 fold. The “Improvement in pH responsiveness of inhibitory peptide relative to WT” value in assay [2] was more than 5 fold.

B2: pro-peptide variant D22P (peptide)
peptide: B1 peptide with D22P, V24A
As to B2, the “Reduction in binding affinity of inhibitory peptide relative to WT” value in assay [3] is more than 1.2 fold.

B3: pro-peptide variant L18S (peptide)
peptide: B1 peptide with L18S, V24A
In the case of B3, the “Reduction in binding affinity of inhibitory peptide relative to WT” value in assay [3] is more than 1.2 fold.

B4: pro-peptide variant E14C (peptide)
peptide: B1 peptide with E14C, V24A
Turning to B4, the “Reduction in binding affinity of inhibitory peptide relative to WT” value in assay [3] was more than 1.2 fold.

B5: pro-peptide variant D22Q (peptide)
peptide: B1 peptide with D22Q, V24A
Turning to B5, the “Reduction in binding affinity of inhibitory peptide relative to WT” value in assay [3] was more than 1.2 fold.

B6: pro-peptide variant D22Y (peptide)
peptide: B1 peptide with D22Y, V24A
Take B6: the “Reduction in binding affinity of inhibitory peptide relative to WT” value in assay [3] was more than 1.2 fold.

B7: pro-peptide variant P46D (peptide)
peptide: B1 peptide with V24A, P46D
For B7, the “Improvement in binding affinity of inhibitory peptide relative to WT” value in assay [1] was more than 1.2 fold. For the same molecule, the “Improvement in pH responsiveness of inhibitory peptide relative to WT” value in assay [2] is more than 1.2 fold.

B8: pro-peptide variant P46I (peptide)
peptide: B1 peptide with V24A, P46I
As to B8, the “Improvement in binding affinity of inhibitory peptide relative to WT” value in assay [1] is more than 1.2 fold. The “Improvement in pH responsiveness of inhibitory peptide relative to WT” value in assay [2] is more than 1.2 fold.

B9: pro-peptide variant I26E (peptide)
peptide: B1 peptide with V24A, I26E
Turning to B9, in assay [3], the “Reduction in binding affinity of inhibitory peptide relative to WT” value was more than 1.2 fold.

B10: pro-peptide variant S38F (peptide)
peptide: B1 peptide with V24A, S38F
Turning to B10, the “Improvement in binding affinity of inhibitory peptide relative to WT” value in assay [1] was more than 1.2 fold. Moreover, in assay [2], the “Improvement in pH responsiveness of inhibitory peptide relative to WT” value was more than 1.2 fold.

B11: pro-peptide variant E14H (peptide)
peptide: B1 peptide with E14H, V24A
Consider B11, for which the “Reduction in binding affinity of inhibitory peptide relative to WT” value in assay [3] was more than 1.2 fold.

B12: pro-peptide variant P46N (peptide)
peptide: B1 peptide with V24A, P46N
Take B12: in assay [1], the “Improvement in binding affinity of inhibitory peptide relative to WT” value was more than 1.2 fold. In addition, in assay [2], the “Improvement in pH responsiveness of inhibitory peptide relative to WT” value is more than 5 fold.

B13: pro-peptide variant S38Y (peptide)
peptide: B1 peptide with V24A, S38Y
In the case of B13, the “Reduction in binding affinity of inhibitory peptide relative to WT” value in assay [3] was more than 1.2 fold.

B14: pro-peptide variant P46S (peptide)
peptide: B1 peptide with V24A, P46S
B14: the “Improvement in binding affinity of inhibitory peptide relative to WT” value in assay [1] is more than 1.2 fold. Moreover, the “Improvement in pH responsiveness of inhibitory peptide relative to WT” value in assay [2] is more than 1.2 fold.

B15: pro-peptide variant P46C (peptide)
peptide: B1 peptide with V24A, P46C
Take B15: the “Improvement in binding affinity of inhibitory peptide relative to WT” value in assay [1] was more than 1.2 fold. Further, the “Improvement in pH responsiveness of inhibitory peptide relative to WT” value in assay [2] was more than 1.2 fold.

B16: pro-peptide variant L18E (peptide)
peptide: B1 peptide with L18E, V24A
On to B16, for which the “Reduction in binding affinity of inhibitory peptide relative to WT” value in assay [3] is more than 1.2 fold.

B17: pro-peptide variant P46K (peptide)
peptide: B1 peptide with V24A, P46K
On to B17, for which the “Improvement in binding affinity of inhibitory peptide relative to WT” value in assay [1] was more than 1.2 fold. The “Improvement in pH responsiveness of inhibitory peptide relative to WT” value in assay [2] is more than 1.2 fold.

B18: pro-peptide variant D22R (peptide)
peptide: B1 peptide with D22R, V24A
For B18, the “Reduction in binding affinity of inhibitory peptide relative to WT” value in assay [3] is more than 1.2 fold.

B19: pro-peptide variant A24P (peptide)
peptide: B1 peptide with V24P
As to B19, in assay [3], the “Reduction in binding affinity of inhibitory peptide relative to WT” value was more than 5 fold.

B20: pro-peptide variant E14D (peptide)
peptide: B1 peptide with E14D, V24A
On to B20, for which, in assay [3], the “Reduction in binding affinity of inhibitory peptide relative to WT” value was more than 1.2 fold.

B21: pro-peptide variant S38V (peptide)
peptide: B1 peptide with V24A, S38V
With B21, the “Improvement in binding affinity of inhibitory peptide relative to WT” value in assay [1] is more than 1.2 fold. Moreover, the “Improvement in pH responsiveness of inhibitory peptide relative to WT” value in assay [2] is more than 1.2 fold.

B22: pro-peptide variant P46Q (peptide)
peptide: B1 peptide with V24A, P46Q
With B22, the “Improvement in binding affinity of inhibitory peptide relative to WT” value in assay [1] was more than 1.2 fold. Further, in assay [2], the “Improvement in pH responsiveness of inhibitory peptide relative to WT” value is more than 1.2 fold.

B23: pro-peptide variant P46W (peptide)
peptide: B1 peptide with V24A, P46W
As for B23, the “Improvement in binding affinity of inhibitory peptide relative to WT” value in assay [1] was more than 1.2 fold. Further, the “Improvement in pH responsiveness of inhibitory peptide relative to WT” value in assay [2] is more than 1.2 fold.

B24: pro-peptide variant S38P (peptide)
peptide: B1 peptide with V24A, S38P
Regarding B24, the “Reduction in binding affinity of inhibitory peptide relative to WT” value in assay [3] was more than 1.2 fold.

B25: pro-peptide variant Y12S (peptide)
peptide: B1 peptide with Y12S, V24A
Take B25: in assay [3], the “Reduction in binding affinity of inhibitory peptide relative to WT” value was more than 5 fold.

B26: pro-peptide variant P46L (peptide)
peptide: B1 peptide with V24A, P46L
In the case of B26, the “Improvement in binding affinity of inhibitory peptide relative to WT” value in assay [1] is more than 1.2 fold. Further, the “Improvement in pH responsiveness of inhibitory peptide relative to WT” value in assay [2] was more than 1.2 fold.

B27: pro-peptide variant P46A (peptide)
peptide: B1 peptide with V24A, P46A
With B27, the “Improvement in binding affinity of inhibitory peptide relative to WT” value in assay [1] is more than 1.2 fold. The “Improvement in pH responsiveness of inhibitory peptide relative to WT” value in assay [2] was more than 1.2 fold.

B28: pro-peptide variant K10C (peptide)
peptide: B1 peptide with K10C, V24A
Turning to B28, the “Reduction in binding affinity of inhibitory peptide relative to WT” value in assay [3] was more than 1.2 fold.

B29: pro-peptide variant S11Y (peptide)
peptide: B1 peptide with S11Y, V24A
Turning to B29, the “Reduction in binding affinity of inhibitory peptide relative to WT” value in assay [3] was more than 1.2 fold.

B30: pro-peptide variant S38D (peptide)
peptide: B1 peptide with V24A, S38D
Take B30: in assay [3], the “Reduction in binding affinity of inhibitory peptide relative to WT” value was more than 1.2 fold.

B31: pro-peptide variant S38H (peptide)
peptide: B1 peptide with V24A, S38H
B31: in assay [1], the “Improvement in binding affinity of inhibitory peptide relative to WT” value is more than 1.2 fold. Also, the “Improvement in pH responsiveness of inhibitory peptide relative to WT” value in assay [2] was more than 1.2 fold.

B32: pro-peptide variant S11H (peptide)
peptide: B1 peptide with S11H, V24A
For B32, in assay [3], the “Reduction in binding affinity of inhibitory peptide relative to WT” value is more than 1.2 fold.

B33: pro-peptide variant A24E (peptide)
peptide: B1 peptide with V24E
With B33, the “Reduction in binding affinity of inhibitory peptide relative to WT” value in assay [3] is more than 1.2 fold.

B34: pro-peptide variant I26A (peptide)
peptide: B1 peptide with V24A, I26A
In the case of B34, the “Reduction in binding affinity of inhibitory peptide relative to WT” value in assay [3] is more than 1.2 fold.

B35: pro-peptide variant Y12P (peptide)
peptide: B1 peptide with Y12P, V24A
As to B35, the “Reduction in binding affinity of inhibitory peptide relative to WT” value in assay [3] was more than 1.2 fold.

B36: pro-peptide variant S11G (peptide)
peptide: B1 peptide with S11G, V24A
As to B36, in assay [3], the “Reduction in binding affinity of inhibitory peptide relative to WT” value is more than 5 fold.

B37: pro-peptide variant E14A (peptide)
peptide: B1 peptide with E14A, V24A
Take B37: in assay [3], the “Reduction in binding affinity of inhibitory peptide relative to WT” value was more than 1.2 fold.

B38: pro-peptide variant P46R (peptide)
peptide: B1 peptide with V24A, P46R
Take B38: the “Improvement in binding affinity of inhibitory peptide relative to WT” value in assay [1] was more than 1.2 fold. The “Improvement in pH responsiveness of inhibitory peptide relative to WT” value in assay [2] is more than 1.2 fold.

B39: pro-peptide variant P46E (peptide)
peptide: B1 peptide with V24A, P46E
As for B39, the “Improvement in binding affinity of inhibitory peptide relative to WT” value in assay [1] is more than 1.2 fold. Moreover, the “Improvement in pH responsiveness of inhibitory peptide relative to WT” value in assay [2] is more than 1.2 fold.

B40: pro-peptide variant P46V (peptide)
peptide: B1 peptide with V24A, P46V
On to B40, for which the “Improvement in binding affinity of inhibitory peptide relative to WT” value in assay [1] is more than 1.2 fold. In addition, in assay [2], the “Improvement in pH responsiveness of inhibitory peptide relative to WT” value was more than 1.2 fold.

B41: pro-peptide variant S38T (peptide)
peptide: B1 peptide with V24A, S38T
As to B41, in assay [1], the “Improvement in binding affinity of inhibitory peptide relative to WT” value is more than 1.2 fold. The “Improvement in pH responsiveness of inhibitory peptide relative to WT” value in assay [2] was more than 1.2 fold.

B42: pro-peptide truncation variant ΔD22-P46 (peptide)
peptide: MDNGAGEETKSYAETYRLTAD
As to B42, the “Reduction in binding affinity of inhibitory peptide relative to WT” value in assay [3] is more than 1.2 fold.

For the origin of these results see patent publication US20250304927A1, “PRO-PEPTIDE VARIANTS FOR MODULATING ACTIVITY OF TRANSGLUTAMINASES” (CURIE CO. INC., priority 2022, published 2025).
